US20190322750A1 (Y BIOLOGICS, published 2019)
Each block holds one binder with its values, some of them ahead of it.

Columns and labels:
[1] = target: T1, PD-L1 on CHO cell line highly expressing PD-L1 (PD-1/PD-L1 blockade bioassay kit, promega J1250) (UniProt Q9NZQ7 19-290, limits assumed); test: cell-based or functional assay
M1 = test: ELISA on coated antigen, column M1
Method: (§1) An antigen PD-L1 wild type (WT) or several mutants were coated at a density of 100 ng/well on a 96-well immunoplate at 4° C. for 16 hours and the wells were blocked with 4% skim milk dissolved in PBS. Each well was washed with 0.2 ml of PBS/T, and then a single clone scFv-phage (each […]) cultured for 16 hours was added in a dose of 100 μl to each well and reacted at room temperature for 2 hours. Again, each well was washed 4 times with 0.2 ml of PBS/T, and then the second antibody, anti-Fab, was diluted to 1/2000 and reacted at room temperature for 1 hour. After washing with 0.2 ml of PBS/T, color development was performed and absorbance was measured at 490 nm.

M2 = test: ELISA on coated antigen, column M2
Method: as §1

M3 = test: ELISA on coated antigen, column M3
M4 = test: ELISA on coated antigen, column M4
Method: as §1

M5 = test: ELISA on coated antigen, column M5
Method: as §1

M6 = test: ELISA on coated antigen, column M6
Method: as §1

M7 = test: ELISA on coated antigen, column M7
M8 = test: ELISA on coated antigen, column M8
Method: as §1

WT = target: T2, WT (human, UniProt Q9NZQ7); test: ELISA on coated antigen, column WT
T2 construct: recombinant; also called hPD-L1; antigen PD-L1 wild type (WT)
Method: as §1

ITGA6 = target: T3, ITGA6; test: ELISA on coated antigen, column ITGA6
T3 construct: unrelated antigen column; all antibodies give 0.5 to 0.6
T3 sequence (P23229 whole entry, species assumed, looked up): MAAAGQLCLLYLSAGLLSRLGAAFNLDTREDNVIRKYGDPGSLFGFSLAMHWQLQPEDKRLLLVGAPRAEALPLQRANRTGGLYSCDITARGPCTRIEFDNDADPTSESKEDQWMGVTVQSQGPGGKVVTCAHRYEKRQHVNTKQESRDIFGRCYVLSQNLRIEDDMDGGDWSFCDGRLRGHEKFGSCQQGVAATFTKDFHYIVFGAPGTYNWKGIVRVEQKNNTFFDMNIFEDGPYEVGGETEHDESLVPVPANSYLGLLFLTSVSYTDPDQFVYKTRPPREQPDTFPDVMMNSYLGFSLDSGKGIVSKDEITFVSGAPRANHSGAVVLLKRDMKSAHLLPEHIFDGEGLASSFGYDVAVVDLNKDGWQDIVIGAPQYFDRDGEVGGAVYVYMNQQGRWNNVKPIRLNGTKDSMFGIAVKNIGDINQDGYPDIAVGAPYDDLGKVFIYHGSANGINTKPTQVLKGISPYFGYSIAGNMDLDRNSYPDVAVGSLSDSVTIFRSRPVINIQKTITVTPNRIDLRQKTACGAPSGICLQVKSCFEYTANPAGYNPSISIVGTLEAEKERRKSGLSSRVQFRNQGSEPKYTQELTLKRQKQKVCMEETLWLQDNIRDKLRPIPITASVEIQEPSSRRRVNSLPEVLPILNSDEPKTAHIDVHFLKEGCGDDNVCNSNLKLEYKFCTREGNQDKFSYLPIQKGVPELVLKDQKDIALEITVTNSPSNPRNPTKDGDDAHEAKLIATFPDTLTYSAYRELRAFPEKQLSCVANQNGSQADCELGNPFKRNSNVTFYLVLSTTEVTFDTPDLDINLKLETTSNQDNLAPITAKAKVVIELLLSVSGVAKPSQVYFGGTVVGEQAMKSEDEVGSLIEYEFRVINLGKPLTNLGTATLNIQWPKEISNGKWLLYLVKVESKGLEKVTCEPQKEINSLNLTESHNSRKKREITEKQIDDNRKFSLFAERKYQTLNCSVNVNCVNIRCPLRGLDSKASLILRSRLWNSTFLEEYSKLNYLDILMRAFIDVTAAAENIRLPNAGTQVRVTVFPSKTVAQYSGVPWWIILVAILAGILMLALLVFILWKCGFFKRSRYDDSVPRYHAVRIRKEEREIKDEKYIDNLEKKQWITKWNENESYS

PD-L1-hFc [2] = target: T4, PD-L1-hFc (human, UniProt Q9NZQ7 19-238); test: SPR (ProteOn XPR36), PD-L1-hFc immobilised on GLC chip, antibody 30 nM to 0.123 nM as analyte
T4 construct: extracellular domain; Made in HEK-293F cells, protein A purified; also called PD-L1 antigen; PD-L1 protein
Method: (§2) A ProteOn XPR36 (BioRad) instrument was used. The GLC sensor chip (BioRad) was mounted on the instrument and washed with PBST buffer, and the carboxymethyldextran surface was activated with an EDC/sulfo-NHS mixed solution. PD-L1-hFc dissolved at a concentration of 5 ug/ml in a 10 mM sodium acetate buffer solution (pH 5.0) was injected and immobilized on the GLC sensor chip.
(§3) In order to deactivate the activated carboxyl groups that remain unreacted with the PD-L1 protein, 1 M ethanolamine was flowed and 10 mM glycine (pH 2.0) was injected in order to wash proteins that remain unbound to the sensor chip.
The equilibrium dissociation constant (KD) was calculated by plotting and fitting the sensogram data in the equilibrium state depending on concentration.

[3] = target: T5, human PD-L1 over-expressed on HEK293E cells (human, UniProt Q9NZQ7 19-290); test: flow cytometry (Geometric Mean) on HEK293E cells over-expressing human PD-L1, serial dilution
T5 construct: whole, on cells; also called human PD-L1 (NM_014143.2)
Method: Then, the cells were washed three times with PBS (#LB001-02, Welgene) containing 2% fetal bovine serum and reacted at 4° C. for 20 minutes with an anti-human IgG antibody (#FI-3000, Vectorlabs) conjugated with a FITC (fluorescein isothiocyanate) fluorescent substance. Then, the cells were subjected to the same washing process as above and then suspended in 0.5 ml of PBS containing 2% FBS (#26140-079, Thermo Fisher) with an FACSCanto II flow cytometer (BD Biosciences, USA) as a flow cytometer.

PD-L1-hFc [4] = target: T4, PD-L1-hFc; test: kinetics on PD-L1-hFc (legend paragraph 40; text names ProteOn XPR36, the sheet's sensorgrams have a nm axis)
[5] = target: T1, PD-L1 on CHO cell line highly …; test: cell-based or functional assay; remark: listed apart in the source
PD-L2-Fc = target: T6, PD-L2-Fc (human, UniProt Q9BQ51); test: ELISA on coated PD-L2-Fc (2.5 and 5 ug/well), OD450nm
T6 construct: recombinant Fc fusion; also called human PD-L2-Fc (#10292-H02H, Sino)
T6 sequence (ligand-Fc, looked up): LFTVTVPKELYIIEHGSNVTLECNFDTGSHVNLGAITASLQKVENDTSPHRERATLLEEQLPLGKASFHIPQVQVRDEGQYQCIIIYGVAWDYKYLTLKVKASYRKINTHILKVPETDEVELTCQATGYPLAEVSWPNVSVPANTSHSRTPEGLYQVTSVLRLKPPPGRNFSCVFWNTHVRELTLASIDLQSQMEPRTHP

PD-L1-His = target: T7, PD-L1-His (human, UniProt Q9NZQ7); test: competition ELISA: PD-L1-His pre-incubated with the antibody, then on coated PD-1-Fc (blocked ligand); % of max absorbance
T7 construct: recombinant, His-tagged; also called human PD-L1-His (S1479, Y-Biologics)

[6] = target: T1, PD-L1 on CHO cell line highly …; test: cell-based or functional assay; remark: listed apart in the source
[7] = target: T5, human PD-L1 over-expressed on HEK293E …; test: flow cytometry on HEK293E/PD-L1 cells, FITC anti-human IgG, serial dilutions; fit table
Method: 0.5 to 1×10⁶ cells per sample were prepared from the transformation cell pools highly expressing human PD-L1, and antibodies were serially diluted at a constant dilution rate and reacted with the prepared cells at 4° C. for 20 minutes. Then, the cells were washed three times with PBS (#LB001-02, Welgene) containing 2% fetal bovine serum and reacted at 4° C. for 20 minutes with an anti-human IgG antibody (#FI-3000, Vectorlabs) conjugated with a FITC (fluorescein isothiocyanate) fluorescent substance. Then, the cells were subjected to the same washing process as above and then suspended in 0.5 ml of PBS containing 2% FBS (#26140-079, Thermo Fisher) with an FACSCanto II flow cytometer (BD Biosciences, USA) as a flow cytometer (Table 11).

mouse PD-L1 protein = mouse PD-L1 protein (mouse, UniProt Q9EP73 19-238, limits assumed); test: SPR (ProteOn XPR36); format of the mouse protein not stated
cynomolgus PD-L1 protein = target: T8, cynomolgus PD-L1 protein (cynomolgus, UniProt G7PSE7 19-239); test: SPR (ProteOn XPR36); format of the cynomolgus protein not stated; cynomolgus PD-L1
T8 construct: also called monkey PD-L1

PD-L1-hFc [8] = target: T4, PD-L1-hFc; test: SPR (ProteOn XPR36), PD-L1-hFc immobilised on GLC chip, antibody as analyte; human PD-L1
Method: as §2, §3

Sequence of mouse PD-L1 protein (Q9EP73 19-238 limits assumed): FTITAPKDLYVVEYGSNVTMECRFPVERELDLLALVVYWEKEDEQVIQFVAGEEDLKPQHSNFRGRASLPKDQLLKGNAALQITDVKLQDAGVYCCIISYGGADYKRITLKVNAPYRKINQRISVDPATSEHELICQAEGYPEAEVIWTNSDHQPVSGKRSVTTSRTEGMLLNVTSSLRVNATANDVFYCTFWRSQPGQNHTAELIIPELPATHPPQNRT
T8 sequence (G7PSE7 entry or part of it): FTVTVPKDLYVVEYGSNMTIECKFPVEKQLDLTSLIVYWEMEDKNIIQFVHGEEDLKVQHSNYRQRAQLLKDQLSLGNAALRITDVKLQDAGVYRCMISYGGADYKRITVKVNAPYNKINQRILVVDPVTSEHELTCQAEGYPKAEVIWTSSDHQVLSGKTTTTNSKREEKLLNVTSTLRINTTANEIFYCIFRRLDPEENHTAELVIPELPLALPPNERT
T4 sequence (Q9NZQ7 other isoform, or with tags, fused parts or gaps limits assumed): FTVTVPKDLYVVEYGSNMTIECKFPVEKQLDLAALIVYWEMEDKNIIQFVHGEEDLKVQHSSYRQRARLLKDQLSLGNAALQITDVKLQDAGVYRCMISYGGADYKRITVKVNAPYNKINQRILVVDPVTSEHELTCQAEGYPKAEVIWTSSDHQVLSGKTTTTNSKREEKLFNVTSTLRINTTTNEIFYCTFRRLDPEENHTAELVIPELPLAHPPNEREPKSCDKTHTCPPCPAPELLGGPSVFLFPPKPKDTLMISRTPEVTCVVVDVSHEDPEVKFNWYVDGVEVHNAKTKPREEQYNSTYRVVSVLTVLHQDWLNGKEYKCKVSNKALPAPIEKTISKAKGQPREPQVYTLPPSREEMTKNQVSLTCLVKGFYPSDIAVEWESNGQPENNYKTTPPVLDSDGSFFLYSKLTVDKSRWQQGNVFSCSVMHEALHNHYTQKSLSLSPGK
T5 sequence (Q9NZQ7 19-290): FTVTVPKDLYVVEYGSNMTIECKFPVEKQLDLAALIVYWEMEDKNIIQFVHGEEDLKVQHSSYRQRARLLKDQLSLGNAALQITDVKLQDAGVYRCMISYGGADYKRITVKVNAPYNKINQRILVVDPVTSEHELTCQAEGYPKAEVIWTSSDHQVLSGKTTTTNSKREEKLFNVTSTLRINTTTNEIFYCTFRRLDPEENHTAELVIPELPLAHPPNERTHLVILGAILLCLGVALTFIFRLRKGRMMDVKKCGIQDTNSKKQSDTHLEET
T1 sequence (Q9NZQ7 19-290 limits assumed): as the sequence (Q9NZQ7 19-290) above
T7 sequence (Q9NZQ7 19-238 limits assumed): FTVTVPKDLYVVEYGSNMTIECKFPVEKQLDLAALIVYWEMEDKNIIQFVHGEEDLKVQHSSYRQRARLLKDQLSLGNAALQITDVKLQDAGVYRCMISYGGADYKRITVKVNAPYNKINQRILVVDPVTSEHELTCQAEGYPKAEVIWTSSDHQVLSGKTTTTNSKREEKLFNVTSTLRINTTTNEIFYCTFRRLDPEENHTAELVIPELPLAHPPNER
T2 sequence (Q9NZQ7 19-238 limits assumed): as above

- EC50 [1]: 909 pM
- absorbance at 490 nm (M1): 2.4
- absorbance at 490 nm (M2): 2.3
- absorbance at 490 nm (M3): 0.9
- absorbance at 490 nm (M4): 0.4
- absorbance at 490 nm (M5): 2.4
- absorbance at 490 nm (M6): 2.5
- absorbance at 490 nm (M7): 2.5
- absorbance at 490 nm (M8): 2.6
- absorbance at 490 nm (WT): 2.5
- absorbance at 490 nm (ITGA6): 0.5
- Kd (PD-L1-hFc [2]): 45 pM
- EC50 [3]: 1720 pM
- Kd (PD-L1-hFc [4]): 43 pM
- koff (PD-L1-hFc [4]): 1.43e-05 s⁻¹
- kon (PD-L1-hFc [4]): 334000 M⁻¹ s⁻¹
B1: PDL1-16E12 (antibody, V domains shown)
VH: QMQLVQSGAEVKKPGSSVKVSCKASGGTFSSYAISWVRQAPGQGLEWMGRIIPILGIANYAQKFQGRVTITADKSTSTAYMELSSLRSEDTAVYYCAKPRDGYNLVAFDIWGQGTMVTVSS
VL: QLVLTQPPSVSGAPGQTVTISCTGSSSNIGAGYDVHWYQQLPGTAPKLLIYGNNNRPSGVPDRFSGSKSGALASLAITGLQAEDGADYHCQSYDNSLSAHAVFGTGTKVTVL
notes: Only FR/CDR pieces are tied to the clone; also called parent antibody

- Average *EC50 [nM], PD-1/PD-L1 blockade bioassay [5]: 0.25 nM
- binding result (PD-L2-Fc): no binding (tested: 1.0 ug/ml)
- IC50 (PD-L1-His): 7660 pM
B2: PD-L1-16E12-LS-4F5 (Kappa) (antibody, V domains shown)
VH: B1 VH
VL: QLVLTQPPSVSGAPGQRVTISCTGSSSNIGAGYDVHWYQQLPGAAPKLLIYGDINRPSGVPDRFSGSKSGISASLAITGLQAEDEADYYCQSYDSSLSGGVFGGGTKLTVL

- Average *EC50 [nM], PD-1/PD-L1 blockade bioassay [5]: 0.47 nM
- EC50 (column 1차 EC50 [nM], first run; row 16E12, curve legend 16E12_Kappa) [6]: 0.41 nM
- EC50 (column 2차 EC50 [nM], second run; row 16E12, curve legend 16E12_Kappa) [6]: 0.45 nM
- Bmax [7]: 4140
- Kd [7]: 4000 pM
- Kd (PD-L1-hFc [4]): 14.9 pM
- kon (PD-L1-hFc [4]): 268000 M⁻¹ s⁻¹
- IC50 (PD-L1-His): 7880 pM
B3: PD-L1-16E12 (WT/kappa) (antibody, V domains shown)
VH: B1 VH
VL: B1 VL
notes: also called PD-L1-16E12-Kappa

- EC50 (first run) [6]: 0.3 nM
- EC50 (second run) [6]: 0.21 nM
- Kd (mouse PD-L1 protein): 808 pM
- koff (mouse PD-L1 protein): 0.000673 s⁻¹
- kon (mouse PD-L1 protein): 833000 M⁻¹ s⁻¹
- Kd (cynomolgus PD-L1 protein): < 35 pM
- koff (cynomolgus PD-L1 protein): < 1e-05 s⁻¹
- kon (cynomolgus PD-L1 protein): 287000 M⁻¹ s⁻¹
- Kd (PD-L1-hFc [8]): < 32 pM
- koff (PD-L1-hFc [8]): < 1e-05 s⁻¹
- kon (PD-L1-hFc [8]): 310000 M⁻¹ s⁻¹
- Bmax [7]: 4100
- Kd [7]: 1460 pM
- Kd (PD-L1-hFc [4]): 8.53 pM
- koff (PD-L1-hFc [4]): 2.18e-06 s⁻¹
- kon (PD-L1-hFc [4]): 256000 M⁻¹ s⁻¹
B4: PDL1-16E12 (LS/4F5) (antibody, V domains shown)
VH: B1 VH
VL: B2 VL
notes: also called 16E12(4F5); 16E12-4F5
